# Results from patent publication US20160346402A1 (Bayer, published 2016).
# T1: TPP-1984, hTNFRSF12 amino acids 28-68-CT-His (human)
# T1 construct: Monomeric ectodomain with C-terminal deletion of amino acids 69 to 80; also called TTP-1984; TWEAKR (28-68)-HIS
# T1 chain: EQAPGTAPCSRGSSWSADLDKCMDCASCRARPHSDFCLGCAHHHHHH
# Key:
# [1] = biological target: T2, TPP-2203, TWEAKR-ECD-34-68-hIgGFc-His (human); experiment: ELISA: TPP-2203 (TWEAKR 34-68-Fc) coated at 1 µg/ml; biotinylated IgG at 0.08 µg/ml (open bars) and 0.3 µg/ml (solid bars); streptavidin-HRP, Amplex Red; Y = signal [Rfu]
# T2 construct: also called TWEAKR (34-68)-Fc fusion protein; N- and C-terminally truncated ectodomain
# Method: FIG. 4: Interaction of the cysteine-rich domain of TWEAKR with antibodies according to the invention and reference antibodies. What is shown is the result of an ELISA with TWEAKR (34-68)-Fc fusion protein coating (TPP-2203, 1 μg/ml) and 0.08 μg/ml (open bars) and 0.3 μ/ml (solid bars) of biotinylated IgG as soluble binding partner. Detection was carried out using streptavidin-HRP and Amplex Red substrate.
# (§1) Detection was carried out using streptavidin-HRP and Amplex Red substrate. IgGs were biotinylated using an about 2-fold molar excess of biotin-LC-NHS (Pierce; Cat. No. 21347) according to the instructions of the manufacturer and desalted using Zeba desalting columns (Pierce; Cat. No. 89889).
# [2] = biological target: T1, TPP-1984, hTNFRSF12 amino acids …; experiment: ELISA: TPP-1984 (TWEAKR 28-68-HIS) coated at 1 µg/ml; biotinylated IgG at 0.08 µg/ml (open bars) and 0.3 µg/ml (solid bars); streptavidin-HRP, Amplex Red; Y = signal [Rfu]
# Method: FIG. 5: Interaction of TWEAKR (28-68) with antibodies according to the invention and reference antibodies. What is shown is the result of an ELISA with TWEAKR (28-68)-HIS coating (TTP-1984, 1 μg/ml) and 0.08 μg/ml (open bars) and 0.3 μ/ml (solid bars) of biotinylated IgG as soluble binding partner. Detection was carried out using streptavidin-HRP and Amplex Red substrate.
# as §1
# [3] = biological target: T3, TPP-2202, TWEAKR-ECD-28-80-hIgGFc-His (human); experiment: ELISA: TPP-2202 (TWEAKR 28-80-Fc) coated at 1 µg/ml; biotinylated IgG at 0.08 µg/ml (open bars) and 0.3 µg/ml (solid bars; legend of FIG. 3 prints 0.03); streptavidin-HRP, Amplex Red; Y = signal [Rfu]
# T3 construct: also called TWEAKR-Fc fusion protein; full-length ectodomain Fc fusion
# Method: FIG. 3: Interaction of the TWEAKR ectodomain with antibodies and reference antibodies. […] Detection was carried out using streptavidin-HRP and Amplex Red substrate.
# as §1
# [4] = biological target: T4, hTNFRSF12 amino acids a28-80-T33Q-hIgG1-Fc (human); experiment: ELISA: TWEAKR-Fc construct coated at 62 ng/ml, biotinylated IgG titrated from 100 nM; token + marks IC50 of 1 to […] pM
# T4 construct: TWEAKR-Fc mutein, coated on the ELISA plate; also called TPP-1986
# Method: (§2) To obtain dose-reaction data, the different TWEAKR-Fc muteins were coated at a low concentration (62 ng/ml) onto a 384-well Maxisorb ELISA plate, and a serial 2-fold dilution of biotinylated IgG beginning with a concentration of 100 nM was used as a soluble binding partner. Detection was carried out using streptavidin-HRP and Amplex Red.
# (§3) IgGs were biotinylated using an about 2-fold molar excess of biotin-LC-NHS (Pierce; Cat. No. 21347) according to the instructions of the manufacturer and desalted using Zeba desalting columns (Pierce; Cat. No. 89889).
# [5] = biological target: T5, hTNFRSF12 amino acids a28-80-S40R-hIgG1-Fc (human); experiment: as above
# T5 construct: TWEAKR-Fc mutein, coated on the ELISA plate; also called TPP-1987
# Method: as §2, §3
# [6] = biological target: T6, hTNFRSF12 amino acids a28-80-M50A-hIgG1-Fc (human); experiment: as above
# T6 construct: TWEAKR-Fc mutein, coated on the ELISA plate; also called TPP-1988
# Method: as §2, §3
# [7] = biological target: T7, hTNFRSF12 amino acids a28-80-R56P-hIgG1-Fc (human); experiment: as above
# T7 construct: TWEAKR-Fc mutein, coated on the ELISA plate; also called TPP-2683
# Method: as §2, §3
# [8] = biological target: T8, hTNFRSF12 amino acids a28-80-H60K-hIgG1-Fc (human); experiment: as above
# T8 construct: TWEAKR-Fc mutein, coated on the ELISA plate; also called TPP-1989
# Method: as §2, §3
# [9] = biological target: T9, hTNFRSF12 amino acids a28-80-L65Q-hIgG1-Fc (human); experiment: as above
# T9 construct: TWEAKR-Fc mutein, coated on the ELISA plate
# Method: as §2, §3
# [10] = biological target: T10, hTNFRSF12 amino acids a28-80-hIgG1-Fc (human); experiment: as above
# T10 construct: wild-type TWEAKR-Fc (dimeric Fc fusion), coated on the ELISA plate; also called TPP-599; HUMAN-TNFRSF12Aaa28-80-hIgG1-Fc
# Method: as §2, §3
# [11] = biological target: T11, TPP-2614, TweakR-ECD-34-68-hIgGFc-His-D47A (human); experiment: ELISA: IgG coated at 1 µg/ml; 8-fold diluted HEK293 supernatant with the TWEAKR(34-68)-Fc-His mutein added; anti-HIS-HRP, Amplex Red; signal [Rfu]
# T11 construct: also called D47A mutein
# Method: These TWEAKR(34-68) Fc muteins were expressed in HEK293 cells. To obtain dose-reaction data, IgGs were coated at a concentration of 1 μg/ml onto a 384-well Maxisorp ELISA plate, and a serial 2-fold dilution of the supernatant comprising the TWEAKR mutein was used as soluble binding partner. Detection was carried out using anti-HIS-HRP and Amplex Red.
binding result [1],binding result [2],binding result [3],binding result [4],binding result [5],binding result [6],binding result [7],binding result [8],binding result [9],binding result [10],binding result [11],Binder
binds,binds,binds,,,,,,,,,"TPP-2090 (antibody, human IgG1, kappa, V domains shown, Human IgG1; biotinylated (biotin-LC-NHS) when used as soluble partner in the ELISAs; also called anti-TWEAKR AK-1) VH: EVQLLESGGGLVQPGGSLRLSCAASGFTFSPYPMIWVRQAPGKGLEWVSYISPSGGSTHYADSVKGRFTISRDNSKNTLYLQMNSLRAEDTAVYYCARGGDTYFDYFDYWGQGTLVTVSS VL: DIQMTQSPSSLSASVGDRVTITCRASQSISGYLNWYQQKPGKAPKLLIYQASSLQSGVPSRFSGSGSGTDFTLTISSLQPEDFATYYCQQSYTSPFITFGQGTKVEIKR"
,,,binds,binds,binds,binds,binds,binds,binds,,"TPP-2084 (antibody, V domains shown, human IgG1) VH: EVQLLESGGGLVQPGGSLRLSCAASGFTFSPYPMMWVRQAPGKGLEWVSYISPSGGSTHYADSVKGRFTISRDNSKNTLYLQMNSLRAEDTAVYYCARGGDTYFDYFDYWGQGTLVTVSS VL: not shown"
,,,binds,binds,binds,binds,binds,binds,binds,,"TPP-2090 (antibody, V domains shown, human IgG1; also called anti-TWEAKR AK-1) VH: EVQLLESGGGLVQPGGSLRLSCAASGFTFSPYPMIWVRQAPGKGLEWVSYISPSGGSTHYADSVKGRFTISRDNSKNTLYLQMNSLRAEDTAVYYCARGGDTYFDYFDYWGQGTLVTVSS VL: DIQMTQSPSSLSASVGDRVTITCRASQSISGYLNWYQQKPGKAPKLLIYQASSLQSGVPSRFSGSGSGTDFTLTISSLQPEDFATYYCQQSYTSPFITFGQGTKVEIKR"
binds,binds,binds,,,,,,,,,"TPP-2084 (antibody, human IgG1, kappa, V domains shown, Human IgG1; biotinylated when used as soluble partner in the ELISAs) VH: EVQLLESGGGLVQPGGSLRLSCAASGFTFSPYPMMWVRQAPGKGLEWVSYISPSGGSTHYADSVKGRFTISRDNSKNTLYLQMNSLRAEDTAVYYCARGGDTYFDYFDYWGQGTLVTVSS VL: not shown"
,,,,,,,,,,binds,"PDL-192(TPP-1104) (antibody, human IgG1, kappa, V domains shown, Comparative antibody; variable domains from WO2009/020933 with human IgG1 constant region added) VH: QVELVESGGGLVQPGGSLRLSCAASGFTFSSYWMSWVRQAPGKGLEWVAEIRLKSDNYATHYAESVKGRFTISRDDSKNSLYLQMNSLRAEDTAVYYCTGYYADAMDYWGQGTLVTVSS VL: DIQMTQSPSSLSASVGDRVTITCRASQSVSTSSYSYMHWYQQKPGKAPKLLIKYASNLESGVPSRFSGSGSGTDFTLTISSLQPEDFATYYCQHSWEIPYTFGGGTKVEIKR"
binds,,binds,,,,,,,,,"P3G5(TPP-2195) (antibody, mouse IgG2a, kappa, V domains shown, Comparative antibody; murine IgG2a) VH: QVQLQQSGPEVVRPGVSVKISCKGSGYTFTDYGIHWVKQSHAKSLEWIGVISTYNGYTNYNQKFKGKATMTVDKSSSTAYMELARLTSEDSAIYYCARAYYGNLYYAMDYWGQGTSVTVSS VL: DIVLTQSPASLAVSLGQRATISCRANKSVSTSSYSYMHWYQQKPGQPPKLLIKYASNLESGVPARFSGSGSGTDFILNIHPVEEEDAATYYCQHSRELPFTFGSGTKLEIKR"
,,,binds,binds,binds,binds,binds,binds,binds,,"P3G5(TPP-2195) (antibody, mouse IgG2a, kappa, V domains shown, murine IgG2a; variable domains from WO2009/140177 with a murine IgG2 constant region added; biotinylated IgG in the ELISA) VH: QVQLQQSGPEVVRPGVSVKISCKGSGYTFTDYGIHWVKQSHAKSLEWIGVISTYNGYTNYNQKFKGKATMTVDKSSSTAYMELARLTSEDSAIYYCARAYYGNLYYAMDYWGQGTSVTVSS VL: DIVLTQSPASLAVSLGQRATISCRANKSVSTSSYSYMHWYQQKPGQPPKLLIKYASNLESGVPARFSGSGSGTDFILNIHPVEEEDAATYYCQHSRELPFTFGSGTKLEIKR"
binds,binds,binds,,,,,,,,,"136.1(TPP-2194) (antibody, mouse IgG2a, kappa, V domains shown, Comparative antibody; murine IgG2a) VH: EVKLEESGGGLVQPGGSMKLSCVASGFTFNNYWMSWVRQSPEKGLEWLAEIRLKSDNYATHYAESVKGKFTISRDDSKSRLYLQMNNLRAENTGIYYCTGGFADYFDYWGQGTTLTVSS VL: DIVLTQSPASLTVSLGQRATISCRASQSVSTSSYSYMQWYQQRPGQPPKLLIKYATNLDSGVPARFSGSGSGTDFTLNIHPVEEEDAATYYCQHSWEIPYTFGGGTKLEIKR"
